Measured values taken from patent US20230050440A1 (Seagen, published 2023).
Numbering of substitutions follows the chain as printed.

T1: recombinant dimeric human TIGIT-Fc (Acro Biosystems TIT-H5254) (human, UniProt Q495A1 22-141)
T1 construct: Bought protein; also called hTIGIT-Fc; not shown: Fc part of the bought fusion protein
T1 sequence: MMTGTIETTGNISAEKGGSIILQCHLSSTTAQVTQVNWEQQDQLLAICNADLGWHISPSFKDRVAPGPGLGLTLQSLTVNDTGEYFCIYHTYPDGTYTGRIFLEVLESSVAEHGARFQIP

T2: monomeric human TIGIT (Sino Biological 10917-H08H) (human, UniProt Q495A1 22-138, biotinylated in the MSD-SET assay)
T2 construct: Bought protein; also called Human TIGIT monomer; Human TIGIT-His; not shown: His tag
T2 sequence: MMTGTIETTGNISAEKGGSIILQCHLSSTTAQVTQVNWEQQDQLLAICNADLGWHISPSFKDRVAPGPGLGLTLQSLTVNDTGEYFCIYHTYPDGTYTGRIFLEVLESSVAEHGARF

T3: human TIGIT expressed on cells (human, UniProt Q495A1 22-244)
T3 construct: HEK 293 cells stably expressing human TIGIT, primary human T cells or Jurkat effector cells; the cell is named under assay; also called Human TIGIT HEK
T3 sequence: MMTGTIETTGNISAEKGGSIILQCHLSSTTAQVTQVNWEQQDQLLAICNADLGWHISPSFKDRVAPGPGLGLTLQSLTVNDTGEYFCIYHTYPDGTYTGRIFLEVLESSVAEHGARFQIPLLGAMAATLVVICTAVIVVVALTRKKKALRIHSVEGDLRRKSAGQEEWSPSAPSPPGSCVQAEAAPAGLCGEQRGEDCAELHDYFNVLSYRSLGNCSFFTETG

B1: Clone 14 (antibody, V domains shown)
VH: QVQLVQSGAEVKKPGSSVKVSCKASGGTFSSYAISWVRQAPGQGLEWMGSIIPIFGTANYAQKFQGRVTITADESTSTAYMELSSLRSEDTAVYYCARGPSEVGAILGYVWFDPWGQGTLVTVSS
VL: not shown
notes: Fully human IgG produced in yeast
B2: Clone 2 (antibody, V domains shown)
VH: EVQLVESGGGLVQPGGSLRLSCAASGFTFSDHYMDWVRQAPGKGLEWVGRTRNKANSYTTEYAASVKGRFTISRDDSKNSLYLQMNSLKTEDTAVYYCARGQYYYGSSSRGYYYMDVWGQGTTVTVSS
VL: EIVLTQSPGTLSLSPGERATLSCRASQSVSSSYLAWYQQKPGQAPRLLIYGASSRATGIPDRFSGSGSGTDFTLTISRLEPEDFAVYYCQQAVPSPLTFGGGTKVEIK
notes: Fully human IgG produced in yeast; also called anti-TIGIT antibody clone 2
B3: Clone 54 (antibody, V domains shown)
VH: QVQLVQSGAEVKKPGASVKVSCKASGYTFTSYYMHWVRQAPGQGLEWMGIINPSGGSTSYAQKFQGRVTMTRDTSTSTVYMELSSLRSEDTAVYYCARASDSYGVGLYYGMDVWGQGTTVTVSS
VL: B2 VL with S30R, A92Y, V93Y, P94V
notes: as for B1
B4: Clone 3 (antibody, V domains shown)
VH: B2 VH
VL: EIVLTQSPGTLSLSPGERATLSCRASQSVRSSYLAWYQQKPGQAPRLLIYGASSRATGIPDRFSGSGSGTDFTLTISRLEPEDFAVYYCQQVGPPLTFGGGTKVEIK
notes: as for B1
B5: Clone 16 (antibody, V domains shown)
VH: QVQLVQSGAEVKKPGSSVKVSCKASGGTFSSYAISWVRQAPGQGLEWMGGIIPIFGTASYAQKFQGRVTITADESTSTAYMELSSLRSEDTAVYYCARQSTWHKLYGTDVWGQGTTVTVSS
VL: DIQMTQSPSSVSASVGDRVTITCRASQGISSWLAWYQQKPGKAPKLLIYAASSLQSGVPSRFSGSGSGTDFTLTISSLQPEDFATYYCQQGDSLPPTFGGGTKVEIK
notes: as for B1
B6: Clone 18 (antibody, V domains shown)
VH: QVQLVQSGAEVKKPGASVKVSCKASGYTFTSYYMSWVRQAPGQGLEWMGIINPSGGSTSYAQKFQGRVTMTRDTSTSTVYMELSSLRSEDTAVYYCARVRYGYADGMDVWGQGTTVTVSS
VL: B5 VL with V11L, G28S, W32Y, A34N, A50G, G91V, D92Y, S93H, P96F
notes: as for B1
B7: Clone 21 (antibody, V domains shown)
VH: QLQLQESGPGLVKPSETLSLTCTVSGGSISSSSYYWGWIRQPPGKGLEWIGSIYYSGSTYYNPSLKSRVTISVDTSKNQFSLKLSSVTAADTAVYYCARDPLYQDAPFDYWGQGTLVTVSS
VL: EIVLTQSPATLSLSPGERATLSCRASQSVSSYLAWYQQKPGQAPRLLIYDASNRATGIPARFSGSGSGTDFTLTISSLEPEDFAVYYCQQRANFPTFGGGTKVEIK
notes: as for B1
B8: Clone 22 (antibody, V domains shown)
VH: QVQLQESGPGLVKPSETLSLTCAVSGYSISSGYYWAWIRQPPGKGLEWIGSIYHSGSTYYNPSLKSRVTISVDTSKNQFSLKLSSVTAADTAVYYCARQGYYYGSSGSVDFDLWGRGTLVTVSS
VL: DIQMTQSPSSVSASVGDRVTITCRASQGISSWLAWYQQKPGKAPKLLIYAASNLQSGVPSRFSGSGSGTDFTLTISSLQPEDFATYYCQQANSLPPWTFGGGTKVEIK
notes: as for B1
B9: Clone 25 (antibody, V domains shown)
VH: QVQLVQSGAEVKKPGASVKVSCKASGYTFTSYAISWVRQAPGQGLEWMGWISAYNGNTNYAQKLQGRVTMTTDTSTSTAYMELRSLRSDDTAVYYCARDLSSFWSGDVLGAFDIWGQGTMVTVSS
VL: DIQMTQSPSSLSASVGDRVTITCRASQSISSYLNWYQQKPGKAPKLLIYAASSLQSGVPSRFSGSGSGTDFTLTISSLQPEDFATYYCQQSVPPRTFGGGTKVEIK
notes: Fully human IgG produced in yeast; also called anti-TIGIT clone 25
B10: Clone 27 (antibody, V domains shown)
VH: B9 VH
VL: EIVMTQSPATLSVSPGERATLSCRASQSVSSNLAWYQQKPGQAPRLLIYGASTRATGIPARFSGSGSGTEFTLTISSLQSEDFAVYYCQQHANHITFGGGTKVEIK
notes: as for B1
B11: Clone 25A (antibody, V domains shown)
VH: B9 VH with N59K
VL: B9 VL
B12: Clone 25E (antibody, V domains shown)
VH: B9 VH with S35A, D99S, L100G
VL: B9 VL
B13: Clone 25C (antibody, V domains shown)
VH: B9 VH with A33P, S35G, A53S, D99G, L100A
VL: B9 VL
B14: Clone 25D (antibody, V domains shown)
VH: B9 VH with A33P, S35G, A53S, S101K
VL: B9 VL
B15: Clone 25B (antibody, V domains shown)
VH: B9 VH with A33P, S35G, A53S
VL: B9 VL

Experiments:
[1] = molecular target: T1, recombinant dimeric human TIGIT-Fc …; experiment: BLI (ForteBio Octet RED384), IgG on AHQ sensor, 100 nM antigen, 1:1 model
Protocol: (§1) Briefly, ForteBio affinity measurements were performed by loading IgGs on-line onto AHQ sensors. Sensors were equilibrated off-line in assay buffer for 30 minutes and then monitored on-line for 60 seconds for baseline establishment. Sensors with loaded IgGs were exposed to 100 nM antigen (dimeric Fc-fusion antigen or monomeric antigen) for 3 minutes, and afterwards were transferred to assay buffer for 3 minutes for off-rate measurement. All binding and dissociation kinetics were analyzed using the 1:1 binding model.

[2] = molecular target: T2, monomeric human TIGIT (Sino Biological …); experiment: as above
Protocol: as §1

[3] = molecular target: T3, human TIGIT expressed on cells; experiment: flow cytometry on HEK 293 cells expressing the target, MFI over parental HEK 293;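 further: bound antibody detected with PE-labelled anti-human IgG, 15 min on ice. FOB equals median fluorescence on TIGIT-positive cells divided by that on target-negative cells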
Protocol: (§2) HEK 293 cells were engineered to stably express high levels of human, mouse or cynomolgus monkey TIGIT by lentiviral transduction. […] Cells were then washed twice with wash buffer and incubated with anti-human IgG conjugated to PE for 15 minutes on ice. Cells were then washed twice with wash buffer and analyzed by flow cytometry on a FACS Canto II instrument (BD Biosciences). Fold over background (FOB) was calculated as the median fluorescence intensity (MFI) of the anti-TIGIT clone bound to target-positive cells divided by the MFI of the anti-TIGIT clone bound to target-negative cells.

[4] = molecular target: T4, cynomolgus monkey TIGIT expressed on cells (cynomolgus monkey); experiment: as above
T4 construct: HEK 293 cells stably expressing cynomolgus monkey TIGIT or cynomolgus T cells; also called Cyno TIGIT HEK
T4 sequence (chain, as listed by the source limits assumed): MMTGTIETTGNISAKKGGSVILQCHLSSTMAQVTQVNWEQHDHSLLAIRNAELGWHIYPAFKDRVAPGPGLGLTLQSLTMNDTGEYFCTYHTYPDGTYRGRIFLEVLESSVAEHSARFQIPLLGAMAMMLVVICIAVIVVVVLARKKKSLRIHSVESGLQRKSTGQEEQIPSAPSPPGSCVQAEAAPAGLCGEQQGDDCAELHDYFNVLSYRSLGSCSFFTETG
Protocol: as §2

[5] = molecular target: T3, human TIGIT expressed on cells; experiment: flow cytometry titration, HEK 293 cells expressing human TIGIT
Protocol: (§3) HEK 293 cells were engineered to stably express high levels of human, mouse or cynomolgus monkey TIGIT by lentiviral transduction. […] Samples were analyzed on a CytoFLEX flow cytometer. Median fluorescence intensity of the FSC/SSC gated population was determined for each antibody concentration. NonLinear regression of Log(X) transformed data was used to generate EC50 values in GraphPad Prism 6.

[6] = molecular target: T4, cynomolgus monkey TIGIT expressed on …; experiment: flow cytometry titration, HEK 293 cells expressing cynomolgus TIGIT
Protocol: as §3

[7] = molecular target: T2, monomeric human TIGIT (Sino Biological …); experiment: BLI (ForteBio), IgG on sensor, monovalent
Protocol: as §1
The optimized antibodies were also tested for ligand blocking in a CD155 ligand competition assay, and for binding to human TIGIT HEK, cyno TIGIT HEK, mouse TIGIT HEK, and parental HEK cell lines, as described above.

[8] = molecular target: T5, cyno TIGIT-Fc (cynomolgus monkey); experiment: BLI (ForteBio), IgG on sensor, avid
T5 construct: not shown: Fc part
T5 sequence (chain, as listed by the source limits assumed): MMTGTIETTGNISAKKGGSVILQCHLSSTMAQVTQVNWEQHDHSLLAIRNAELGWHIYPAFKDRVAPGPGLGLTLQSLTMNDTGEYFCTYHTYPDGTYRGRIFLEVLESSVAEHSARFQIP

[9] = molecular target: T2, monomeric human TIGIT (Sino Biological …); experiment: MSD-SET solution equilibrium titration, biotinylated antigen at 50 pM
Protocol: Antibodies (20 nM in PBS) were coated onto standard bind MSD-ECL plates overnight at 4° C. or at room temperature for 30 min. Plates were then blocked with 1% BSA for 30 min with shaking at 700 rpm, followed by three washes with wash buffer (PBSF+0.05% Tween 20). SET samples were applied and incubated on the plates for 150s with shaking at 700 rpm followed by one wash. Antigen captured on a plate was detected with 250 ng/ml sulfotag-labeled streptavidin in PBSF by incubation on the plate for 3 min. The plates were washed three times with wash buffer and then read on the MSD Sector Imager 2400 instrument using 1× Read Buffer T with surfactant. The percent free antigen was plotted as a function of titrated antibody in Prism and fit to a quadratic equation to extract the KD. To improve throughput, liquid handling robots were used throughout MSD-SET experiments, including SET sample preparation.

Binder | Kd [1] [nM] | Kd [2] [nM] | FOB (Fold Over Background) [3] [fold] | FOB (Fold Over Background) [4] [fold] | EC50 [5] [µg/mL] | EC50 [6] [µg/mL] | Kd [7] [nM] | Kd [8] [nM] | Kd [9] [nM]
B1 | 2.01 | 58.7 |  |  |  |  |  |  | 
B2 | 0.956 | 10.1 | 158 | 162 | 0.15 | 0.32 | 8.18 | 1.34 | 
B3 | 0.689 | 3.49 |  |  | 0.11 | 11.4 |  |  | 
B4 | 2.77 | 73.6 |  |  |  |  |  |  | 
B5 | 0.69 | 2.06 | 192 | 27 | 0.07 | 0.1 | 2.52 | 4.67 | 
B6 | 2.39 | 50.8 |  |  |  |  |  |  | 
B7 | 0.585 | 2.18 |  |  |  |  |  |  | 
B8 | 0.79 | 13.8 |  |  |  |  |  |  | 
B9 | 0.62 | 0.618 | 205 | 247 | 0.14 | 0.19 | 1.27 | 1.5 | 
B10 | 0.558 | 2.32 |  |  |  |  |  |  | 
B11 |  |  | 207 | 238 |  |  | 1.1 | 1.64 | 0.018
B12 |  |  | 204 | 252 |  |  | 0.851 | 1.18 | 0.013
B13 |  |  | 216 | 286 |  |  | 0.697 | 1.24 | 0.0056
B14 |  |  | 225 | 272 |  |  | 0.846 | 1.18 | 0.027
B15 |  |  | 222 | 291 |  |  | 1.16 | 1.4 | 0.022
